Residue numbers refer to the chain shown, from its start. In names and notes the source's numbering stands. Read-outs that look alike come from different tables or passages of the source. Values belong to the binder of their own block, whether it stands above or below them.
Key:
[1] = target: T1, recombinant human integrin α5β1 (human, UniProt P08648 42-995; P05556 21-728); test: cell-based or functional assay
[2] = target: T1, recombinant human integrin α5β1; test: SPR (BIAcore), antibody as hIgG is the captured ligand, Human Integrin α5β1 (R&D) is the analyte
Protocol: (§1) To determine binding kinetics and affinities of the antibodies described herein, Surface Plasmon Resonance (SRP) measurement with a BIAcore™-3000 instrument was used. Antibody was first captured by pre-immobilized rabbit anti-human Fc CM5 biosensor chip on the different flow cell to achieve approximately 150 RU (Response Units). For kinetics measurements, 2-fold serial dilutions of human integrin α5β1 (300 nM to 1.2 nM) were injected in PBT buffer (PBS with 0.05% Tween 20) at 25° C. with a flow rate of 30 μl/min. Association rates (kₒₙ) and dissociation rates (koff) were calculated using a simple one-to-one Langmuir binding model (BIAcore Evaluation Software version 3.2). The equilibrium dissociation constant (KD) was calculated as the ratio koff/kₒₙ.
(§2) To determine binding kinetics and affinities of chimeric 18C12, h18C12.v6.1, h18C12.v6.1.1, h18C12.v6.1.2, h18C12.v6.1.3, h18C12.v6.1.4, h18C12.v6.1.5 IgGs, Surface Plasmon Resonance (SRP) measurement with a BIAcore™-3000 instrument as described in Example 1 was used.

[3] = target: T1, recombinant human integrin α5β1; test: SPR (BIAcore), IgG captured on anti-human Fc chip, Human Integrin α5β1 (R&D) as analyte
Protocol: as §1, §2

[4] = target: T1, recombinant human integrin α5β1; test: phage competition ELISA: Fab-displaying phage pre-incubated with serially diluted soluble human integrin α5β1, unbound phage captured on plate-coated human integrin α5β1, anti-M13-HRP detection
Protocol: MAXISORP™ microtiter plates were coated with recombinant human integrin β5β1 (R&D) at 5 μg/ml in PBS overnight and then blocked with PBST buffer (0.5% BSA and 0.05% Tween 20 in PBS) for an hour at room temperature. Phage from culture supernatants were incubated with serially diluted human integrin α5β1 in PBST buffer in a tissue-culture microtiter plate for an hour, after which 80 μl of the mixture was transferred to the target-coated wells for 15 minutes to capture unbound phage. The plate was washed with PBT buffer (0.05% Tween 20 in PBS), and HRP-conjugated anti-M13 (Amersham Pharmacia Biotech) was added (1:5000 in PBST buffer) for 40 minutes. The plate was washed with PBT buffer and developed by adding tetramethylbenzidine substrate (Kirkegaard and Perry Laboratories, Gaithersburg, Md.). The absorbance at 450 nm was plotted as a function of target concentration in solution to determine phage IC₅₀.

[5] = target: T1, recombinant human integrin α5β1; test: SPR (BIAcore), antibody as hIgG is the captured ligand, Human Integrin α5β1 (R&D) is the analyte; remark: listed apart in the source
Protocol: as §1

[6] = target: T2, recombinant α5β1 extracellular domain; test: blocking ELISA: antibody titrated and premixed with recombinant α5β1 (R&D), then added to fibronectin-coated wells; bound α5β1 detected with anti-β1-biotin / streptavidin-HRP (OD450); the blocked ligand is fibronectin
T2 construct: extracellular domain; also called α5β1 (R & D Systems)
Protocol: anti-β5β1 antibody (30 μg/mL) was serially diluted 1:3 11 times. 50 μl of the serially diluted anti-β5β1 antibody was added to 0.65 mL micro tubes and premixed (1:1) with 50 μL of 200 ng/mL […] (R & D Systems) in ELISA buffer (150 mM NaCl, 10 mM Tris, pH 7.5, 5 mg/mL BSA, 1 mM MnCl₂) for 60 minutes at room temperature with gentle agitation. 25 μL of the premixed α5β1 and anti-β5β1 antibody was added to the Fibronectin coated wells and the plates were incubated at room temperature for 60 minutes with gentle agitation. Plates were washed 6 times with PBT buffer, 100 ng/mL anti-β1-biotin in ELISA buffer was added to each well and the plates were incubated for 60 minutes at room temperature with gentle agitation. Plates were washed 6 times with 80 μL PBT buffer, 25 μL of Streptadvidin-HRP (1:50,000 in ELISA buffer, GE Healthcare) was added to each well, and the plates were incubated for 60 minutes at room temperature with gentle agitation. Plates were washed 6 times with 80 μL PBT buffer, 25 μl of TMB substrate (Kirkgaard and Perry Laboratories) was added to each well, plates were incubated about 6 minutes at room temperature, and the reaction was stopped with 25 μL of 1 M Phosphoric Acid. Absorbance was read at 450 nm and IC₅₀ values were analyzed as described in section B above. […]

[7] = target: T1, recombinant human integrin α5β1; test: cell-based or functional assay; remark: listed apart in the source
[8] = target: T1, recombinant human integrin α5β1; test: BIAcore SPR, IgG captured by anti-human Fc, human integrin α5β1 as analyte
Protocol: as §1, §2

T1 sequence (P08648 42-995 limits assumed, chain 1 of 2): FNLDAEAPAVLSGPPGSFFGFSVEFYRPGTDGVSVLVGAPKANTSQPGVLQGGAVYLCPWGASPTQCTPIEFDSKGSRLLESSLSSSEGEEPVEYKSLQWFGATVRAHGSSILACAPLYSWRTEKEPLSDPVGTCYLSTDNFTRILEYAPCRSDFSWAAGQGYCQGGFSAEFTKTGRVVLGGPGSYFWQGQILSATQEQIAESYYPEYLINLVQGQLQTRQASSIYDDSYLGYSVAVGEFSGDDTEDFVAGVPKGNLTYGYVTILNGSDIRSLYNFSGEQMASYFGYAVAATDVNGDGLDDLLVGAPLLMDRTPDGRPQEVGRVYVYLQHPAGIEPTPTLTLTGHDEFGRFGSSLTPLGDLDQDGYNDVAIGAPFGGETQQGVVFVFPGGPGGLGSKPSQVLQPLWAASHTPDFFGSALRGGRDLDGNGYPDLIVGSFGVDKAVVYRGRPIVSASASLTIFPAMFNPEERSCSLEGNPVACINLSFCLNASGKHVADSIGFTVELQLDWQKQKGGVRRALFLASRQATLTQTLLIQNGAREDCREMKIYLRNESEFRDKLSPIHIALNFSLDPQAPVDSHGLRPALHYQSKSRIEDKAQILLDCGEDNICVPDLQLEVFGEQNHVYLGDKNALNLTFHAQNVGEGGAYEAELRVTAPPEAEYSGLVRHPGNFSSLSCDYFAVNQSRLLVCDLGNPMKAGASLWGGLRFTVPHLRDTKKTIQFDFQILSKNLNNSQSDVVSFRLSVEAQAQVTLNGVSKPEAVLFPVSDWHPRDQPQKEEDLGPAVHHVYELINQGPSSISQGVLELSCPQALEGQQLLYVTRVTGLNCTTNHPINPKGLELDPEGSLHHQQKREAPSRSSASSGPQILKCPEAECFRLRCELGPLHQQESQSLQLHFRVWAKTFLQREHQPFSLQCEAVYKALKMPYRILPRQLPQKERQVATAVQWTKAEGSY
T1 sequence (P05556 21-728 limits assumed, chain 2 of 2): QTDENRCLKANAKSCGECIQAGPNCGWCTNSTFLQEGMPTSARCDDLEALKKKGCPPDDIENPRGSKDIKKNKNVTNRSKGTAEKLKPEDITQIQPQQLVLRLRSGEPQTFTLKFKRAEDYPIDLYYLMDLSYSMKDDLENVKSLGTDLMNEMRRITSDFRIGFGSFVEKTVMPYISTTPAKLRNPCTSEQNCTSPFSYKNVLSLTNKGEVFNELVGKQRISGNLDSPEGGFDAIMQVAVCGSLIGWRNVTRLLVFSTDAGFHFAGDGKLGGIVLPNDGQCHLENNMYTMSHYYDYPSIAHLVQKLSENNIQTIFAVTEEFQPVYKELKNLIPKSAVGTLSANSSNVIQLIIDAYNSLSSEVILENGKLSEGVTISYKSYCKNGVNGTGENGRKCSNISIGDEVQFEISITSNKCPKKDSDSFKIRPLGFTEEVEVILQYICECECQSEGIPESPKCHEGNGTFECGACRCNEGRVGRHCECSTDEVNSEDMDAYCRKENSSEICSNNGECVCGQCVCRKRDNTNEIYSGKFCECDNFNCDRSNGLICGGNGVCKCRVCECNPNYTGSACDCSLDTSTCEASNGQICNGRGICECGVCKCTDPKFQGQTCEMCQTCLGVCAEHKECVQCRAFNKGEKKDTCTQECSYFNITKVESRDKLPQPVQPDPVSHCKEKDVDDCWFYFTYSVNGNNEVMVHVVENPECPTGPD
T2 sequence (P08648 42-995, chain 1 of 2): as the sequence (P08648 42-995 limits assumed, chain 1 of 2) above
T2 sequence (P05556 21-728, chain 2 of 2, further chain): as the sequence (P05556 21-728 limits assumed, chain 2 of 2) above

B1: chimeric 18C12 (antibody, V domains shown)
VH: EVHLVESGGDLVQPGSSLKLSCAASGFTFSNRWIYWVRQAPGKGLEWVGGIKTKPNIYATEYADSVKGRFTISRDDSKNSLYLQMNTLRVDDTAIYYCTSLTGMRYFDYWGQGT
VL: QPVLTQSPSASASLGNSVKITCTLSSQHSTYTIGWYQQHPDKAPKYVMYLNSDGSHNKGDGIPDRFSGSSSGAHRYLSISNIQPEDEADYFCGSSYSSGYVFGSGT
notes: also called chimeric 18C12 IgG
IC50 for inhibition of adhesion of U937 cells to plate-coated fibronectin (Cell-Titer Glo luminescence); the target is α5β1 on the U937 cells [1]: 0.159 nM | Kd [2]: 7.68 nM | koff [2]: 0.000922 s⁻¹ | kon [2]: 120000 M⁻¹ s⁻¹

B2: h18C12.v6.1.2 (antibody, V domains shown)
VH: EVQLVESGGGLVQPGGSLRLSCAASGFTFSARWIYWVRQAPGKGLEWVGGIKTKPAIYATEYADSVKGRFTISRDDSKNTLYLQMNSLRAEDTAVYYCARLTGMKYFDYWGQGT
VL: SSELTQDPAVSVALGQTVRITCTLSSQHSTYTIGWYQQKPGQAPVYLMYLNSDGSHNKGSGIPDRFSGSSSGATRSLTITNAQAEDEADYYCAAYYAYGYVFGGGT
notes: copies: 2 + 2
Kd [3]: 13.5 nM | koff [3]: 0.000643 s⁻¹ | kon [3]: 48000 M⁻¹ s⁻¹

B3: h18C12.v3 (Fab, V domains shown)
VH: B2 VH with A31N, A56N, K105R
VL: EPVLTQSPSASASLGASVKLTCTLSSQHSTYTIGWYQQQPGKAPRYLMYLNSDGSHNKGDGIPDRFSGSSSGADRYLTISNLQSEDEADYYCGSSYSSGYVFGGGT
notes: also called Humanized 18C12.v3; h18C12.v3 parental clone
IC50 [4]: 0.72 nM | Kd [5]: 11.5 nM | koff [5]: 0.000807 s⁻¹ | kon [5]: 71000 M⁻¹ s⁻¹

Next, values leading:

Kd [3]: 15.5 nM | koff [3]: 0.000659 s⁻¹ | kon [3]: 43000 M⁻¹ s⁻¹ | IC50 [6]: 0.077 nM | IC50 for inhibition of adhesion of U937 cells to plate-coated fibronectin (Cell-Titer Glo luminescence); the target is α5β1 on the U937 cells [7]: 0.126 nM
B4: h18C12.v6.1.5 (antibody, V domains shown)
VH: B2 VH
VL: B2 VL with G54S
notes: Derived from h18C12.v6.1 by removing Asn in CDR-L2 positions 50a-50d; also called anti-α5β1 antibody h18C12.v6.1.5

fold higher binding affinity than hamster 18C12 [8]: ~2 fold | IC50 for inhibition of adhesion of U937 cells to plate-coated fibronectin (Cell-Titer Glo luminescence); the target is α5β1 on the U937 cells [1]: 0.207 nM | Kd [2]: 4 nM | koff [2]: 0.000386 s⁻¹ | kon [2]: 97000 M⁻¹ s⁻¹
B5: h18C12.v6.1Lam3 (antibody, V domains shown)
VH: B2 VH
VL: B2 VL with D53S
notes: CDRs come from h18C12.v6 with changes in CDR-L2 (D50cS, D56S), CDR-H1 (N31A) and CDR-H2 (N53A); The human λIII framework carries L46Y, V47L, I48M, N69A, A71R and G77N

IC50 [4]: 0.41 nM | Kd [5]: 4.8 nM | koff [5]: 0.00075 s⁻¹ | kon [5]: 174000 M⁻¹ s⁻¹
B6: h18C12.v6 (Fab, V domains shown)
VH: B2 VH with A31N, A56N
VL: B3 VL with G93A, S94A, S95Y, S97A, S98Y

From US20150203581A1 (Genentech, published 2015)
